How the values were obtained:
crystal structure = target: the molecule itself; experiment: crystal structure
[1] = target: the molecule itself; experiment: in vitro reconstitution of S-layer sheets, seen by cryo-EM and cryo-ET

Row | Protein | stoichiometry N (crystal structure) | binding result [1]
1 | RsaA(249-1026), the N-terminally cleaved RsaA in the crystals (domain or fragment) GSTLSLTTGTDTLTGTANNDTFVAGEVAGAATLTVGDTLSGGAGTDVLNWVQAAAVTALPTGVTISGIETMNVTSGAAITLNTSSGVTGLTALNTNTSGAAQTVTAGAGQNLTATTAAQAANNVAVDGGANVTVASTGVTSGTTTVGANSAASGTVSVSVANSSTTTTGAIAVTGGTAVTVAQTAGNAVNTTLTQADVTVTGNSSTTAVTVTQTAAATAGATVAGRVNGAVTITDSAAASATTAGKIATVTLGSFGAATIDSSALTTVNLSGTGTSLGIGRGALTATPTANTLTLNVNGLTTTGAITDSEAAADDGFTTINIAGSTASSTIASLVAADATTLNISGDARVTITSHTAAALTGITVTNSVGATLGAELATGLVFTGGAGADSILLGATTKAIVMGAGDDTVTVSSATLGAGGSVNGGDGTDVLVANVNGSSFSADPAFGGFETLRVAGAAAQGSHNANGFTALQLGATAGATTFTNVAVNVGLTVLAAPTGTTTVTLANATGTSDVFNLTLSSSAALAAGTVALAGVETVNIAATDTNTTAHVDTLTLQATSAKSIVVTGNAGLNLTNTGNTAVTSFDASAVTGTGSAVTFVSANTTVGEVVTIRGGAGADSLTGSATANDTIIGGAGADTLVYTGGTDTFTGGTGADIFDINAIGTSTAFVTITDAAVGDKLDLVGISTNGAIADGAFGAAVTLGAAATLAQYLDAAAAGDGSGTSVAKWFQFGGDTYVVVDSSAGATFVSGADAVIKLTGLVTLTTSAFATEVLTLA | 6 | –
2 | RsaA, S-layer protein of Caulobacter crescentus CB15N (NA1000), full length, purified (natural protein) MAYTTAQLVTAYTNANLGKAPDAATTLTLDAYATQTQTGGLSDAAALTNTLKLVNSTTAVAIQTYQFFTGVAPSAAGLDFLVDSTTNTNDLNDAYYSKFAQENRFINFSINLATGAGAGATAFAAAYTGVSYAQTVATAYDKIIGNAVATAAGVDVAAAVAFLSRQANIDYLTAFVRANTPFTAAADIDLAVKAALIGTILNAATVSGIGGYATATAAMINDLSDGALSTDNAAGVNLFTAYPSSGVSGSTLSLTTGTDTLTGTANNDTFVAGEVAGAATLTVGDTLSGGAGTDVLNWVQAAAVTALPTGVTISGIETMNVTSGAAITLNTSSGVTGLTALNTNTSGAAQTVTAGAGQNLTATTAAQAANNVAVDGGANVTVASTGVTSGTTTVGANSAASGTVSVSVANSSTTTTGAIAVTGGTAVTVAQTAGNAVNTTLTQADVTVTGNSSTTAVTVTQTAAATAGATVAGRVNGAVTITDSAAASATTAGKIATVTLGSFGAATIDSSALTTVNLSGTGTSLGIGRGALTATPTANTLTLNVNGLTTTGAITDSEAAADDGFTTINIAGSTASSTIASLVAADATTLNISGDARVTITSHTAAALTGITVTNSVGATLGAELATGLVFTGGAGADSILLGATTKAIVMGAGDDTVTVSSATLGAGGSVNGGDGTDVLVANVNGSSFSADPAFGGFETLRVAGAAAQGSHNANGFTALQLGATAGATTFTNVAVNVGLTVLAAPTGTTTVTLANATGTSDVFNLTLSSSAALAAGTVALAGVETVNIAATDTNTTAHVDTLTLQATSAKSIVVTGNAGLNLTNTGNTAVTSFDASAVTGTGSAVTFVSANTTVGEVVTIRGGAGADSLTGSATANDTIIGGAGADTLVYTGGTDTFTGGTGADIFDINAIGTSTAFVTITDAAVGDKLDLVGISTNGAIADGAFGAAVTLGAAATLAQYLDAAAAGDGSGTSVAKWFQFGGDTYVVVDSSAGATFVSGADAVIKLTGLVTLTTSAFATEVLTLA | – | binds
